According to US7655759 (VRIJE UNIVERSITEIT BRUSSEL, dated 2010):

Biological target: tetanus toxoid (RIT, Smith Kline Beecham) (Clostridium tetani, UniProt P04958 2-1315)
Experiment: ELISA by the procedure of Friguet et al.

tetanus toxoid (RIT, Smith Kline Beecham), sequence (P04958 2-457 limits assumed, chain 1 of 2): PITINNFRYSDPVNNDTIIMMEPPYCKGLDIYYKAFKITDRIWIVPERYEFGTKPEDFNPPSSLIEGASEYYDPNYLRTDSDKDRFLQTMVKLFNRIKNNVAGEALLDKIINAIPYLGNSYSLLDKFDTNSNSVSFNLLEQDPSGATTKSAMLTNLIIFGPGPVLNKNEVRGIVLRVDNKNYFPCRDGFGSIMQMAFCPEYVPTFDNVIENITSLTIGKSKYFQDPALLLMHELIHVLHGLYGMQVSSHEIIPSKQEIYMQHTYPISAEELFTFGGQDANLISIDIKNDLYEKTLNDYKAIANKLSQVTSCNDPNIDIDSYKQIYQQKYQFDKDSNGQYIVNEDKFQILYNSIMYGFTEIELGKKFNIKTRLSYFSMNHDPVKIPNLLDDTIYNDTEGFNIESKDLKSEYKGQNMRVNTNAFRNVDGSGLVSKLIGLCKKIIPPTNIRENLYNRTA
tetanus toxoid (RIT, Smith Kline Beecham), sequence (P04958 458-1315 limits assumed, chain 2 of 2): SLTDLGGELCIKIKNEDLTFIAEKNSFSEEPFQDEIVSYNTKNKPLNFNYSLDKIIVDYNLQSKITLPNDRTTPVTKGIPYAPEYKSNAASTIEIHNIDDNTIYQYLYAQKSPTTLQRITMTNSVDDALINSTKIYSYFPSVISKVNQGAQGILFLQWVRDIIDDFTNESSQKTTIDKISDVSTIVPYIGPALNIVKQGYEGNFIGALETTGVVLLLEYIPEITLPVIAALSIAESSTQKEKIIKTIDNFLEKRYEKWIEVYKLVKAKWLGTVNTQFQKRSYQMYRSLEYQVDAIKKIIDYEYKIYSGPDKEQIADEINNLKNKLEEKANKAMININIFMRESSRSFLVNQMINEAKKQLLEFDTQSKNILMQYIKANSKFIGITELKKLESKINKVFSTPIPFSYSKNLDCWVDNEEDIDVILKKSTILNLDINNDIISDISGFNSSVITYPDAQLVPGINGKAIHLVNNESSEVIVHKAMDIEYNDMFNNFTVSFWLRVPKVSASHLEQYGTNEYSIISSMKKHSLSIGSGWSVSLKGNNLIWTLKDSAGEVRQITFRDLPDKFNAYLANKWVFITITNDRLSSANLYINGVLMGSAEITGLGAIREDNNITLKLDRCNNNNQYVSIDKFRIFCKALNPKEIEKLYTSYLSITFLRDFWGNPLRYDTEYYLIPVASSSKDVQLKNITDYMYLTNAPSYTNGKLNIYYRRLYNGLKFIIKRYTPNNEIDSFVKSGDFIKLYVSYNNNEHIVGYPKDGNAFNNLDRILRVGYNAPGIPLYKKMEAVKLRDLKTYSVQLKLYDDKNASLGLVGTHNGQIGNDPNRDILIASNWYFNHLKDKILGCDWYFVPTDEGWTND

Row | Binder | Ka
1 | camel VHH αTT2 (anti-tetanus toxoid) (VHH) VHH: EVQLQASGGGSVQAGGSLRLSCTAANYAFDSKTVGWFRQVPGKEREGVAGISSGGSTTAYSDSVKGRYTVSLENAKNTVYLLIDNLQPEDTAIYYCAGVSGWRGRQWLLLAETYRFWGQGTQVTVSS | 2e+07 M⁻¹
2 | camel VHH αTT1 (anti-tetanus toxoid) (VHH) VHH: EVQLQASGGGSVQAGGSLRLSCAASGGQTFDSYAMAWFRQAPGKECELVSSIIGDDNRNYADSVKGRFTISRDNAKNTVYLQMDRLNPEDTAVYYCAQLGSARSAMYCAGQGTQVTVSS | 6e+07 M⁻¹
